Test: yeast display, Sf9 membrane polyspecificity reagent, FACS + sequencing; frameworks hold sequencing errors
In short: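 Nanobodies from a synthetic yeast display library (Saccharomyces cerevisiae BJ5465), induced 36–48 hours with galactose, were stained 1 hour at 4 °C with 10% biotinylated, detergent-solubilized Sf9 membrane reagent, enriched on streptavidin microbeads, then FACS-sorted. Anti-HA (expression) and streptavidin (reagent binding) fluorescence set low and high (top ~1%) gates. Polyreactivity labels come from the gate of origin. Genes were colony-PCR amplified, MiSeq 2 × 250 sequenced and filtered by CDR length.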

Sequence | polyreactivity (PSR sort gate)
QVQLVESGGGLVQAGGSLRLSCAASGSIFAYNAMGWYRQAPGKERELVAAISVGGGRTYYADSVKGRFTISRDNAKNTVYLQMNSLKPEDTAVYYCAASSTAKRYYWGQGTQVTVSS | high polyreactivity
QVQHVESGGGLVQAGGSLRLSCAASGGTFRWNAMGWYRQAPGQERELVAAITKSGGSTYYADSVKGRFTISRDNAKNTVYLQMNSLKPEDTAVYYCATDYLRRRDYWGQGTQVTVSS | high polyreactivity
QVQLVESGGGLVQAGGSLRLSSAASGSIFELNAMGWYRQAPGKERELVASISFRGTSTYYADSVKGRFTISRDYAKNTVYLKMNSLKPDDNAVYYCAADTTFPFSYWGQGTQVTVSS | low polyreactivity
QVQLVESGGGLVQAGGSLRLSCAASGSTLKYYAMGRYRQAPGKEMELVAAIRNLGGRTYYADSVKGRFTISRDNAKNTVYLQMNSLKPEDTAVYYCAAQFQSTAVGRDNYWGQGTQVTVSS | high polyreactivity
QVQLQESGGGLVQAGGSLRLSCAASGDILEADDMGWYRQAPGKERELVASITDGGSTNCADSMKGRSTICRDNAKITVYVQMNRLKLEDTAVYYCAGIAYPDVPTYFDYDSDYFYWGQGTLVTVSS | high polyreactivity
QVQLVESGGGLVQAGGSLRLSCAASGRTFYKNTMGWYRQAPGKERELVAGISQRGGRTYYADSVKGRFTISRDNANYTVYLQMNSLKPEDTAVYYCAVRSYGHGFDYWGQGNQVTVSS | high polyreactivity
QVQLVESGGVLVQAGGSLRLSCAASGIIFVYNPMGWYRPAPGKERELVAGISWNGVSTYYADSVKWRFTISRDYAKYTVYLQMNSLKPEDTAVYYCAASLWVYVGQARYLWYDYWGQGTQVTVSS | low polyreactivity
QVQHVESGGGLVQAGGSLRLICAASGRIFTRYAMGWYRQAPGKERELVAAISASGGSTHYADSVKGRFTISRDNAKNTVYLQMNSLKPEDTAVYYCADAYVSRNSGFGYWGQGTQVTVSS | low polyreactivity
HVQLQESGGGLVQAGGSLRLSCAASGNISYSRNMGWYRQAPGKERELVAAIDRGAITYYADSVKGRFTISRDNAKNTVYLQIYSLKPEDTAVYYCAAEYHDRWDHRYWGQGTQVTVSS | high polyreactivity
QVQLVESGGGLVQAGGSLRLSCAASGIIFRFYAMGWYRQAPGKERELVAVITSRSDSTYYADSVKGRFTISRDNAKNTVYLQMNSLKPEDTAVYYCNARYPWYYRYSTYDYWGQGTQVTVSS | high polyreactivity
QVQLVESGGGLVQAGGSLRLSCAASGRIFYGYAMGWYIQAPGKERELVAAITYIGGTYYADSVKGRFTISRDNAKNTVYLQMNSQKPEDTSVYYCASEPFYNFVYYTYPYWYDYWGQGTQVTVSS | low polyreactivity
QVQLVESGGGLVQAGGSLRVSCAASGSTFQYYAMGWYRQAPGKERELVARISDSSANTYYADSVKGRFTISRDNAKNTVYLQMNSLKPEYTAVYYCATRRSHVLSEMDYWGQGTQVTVSS | low polyreactivity
QVQLVETGGGLVQAGGSLRLSCAASGRTFAGNAMGWYRQAPGKERELVAGISSGGSTNYADSVKGRFTISRDNAKNTVYLQMNSLNPEDTAVYYCAKRYFRKGYPLFHYAYGYWGQVTQVTVSS | high polyreactivity
QVQLVESGGGLVQAGGSLRLSCAASGFIFAPNAMGWYRQAPGKERELVAAISHSGASTFYADSVKGRFTISRDNAKNTVYLQMNILKPEDTAVYYCAADLYIYYVWIRDYWGHGTQVTVSS | low polyreactivity
QVQLVESGGGLVQAGGSLRLSCAASGSTFFRYARGWYIQAPGKEREFVAAISKRGGSTHYADSVKGRFTISRDNAKKTVYLQMNSLKPADTAVYYCAASSFTSSYNYWGQGTQVTVSS | high polyreactivity
QVQLEESGGGLVQAGGSLRLSCAASGFTFRKNAMGWYRQAPGKERELVAAISSGGGRTYYADSVKGRFTISRDNANNTVYLQMNSLKPEDTAVYYCAVSIGRYPYRYGYWGQGTQVTVSS | high polyreactivity

Sequence | polyreactivity (PSR sort gate)
QVQLVESGGGLVQAGGSLRLSCAASGSTFAYYTMGWYRQAPGKERELVAAITSGGRTSYADSVKGRFTISRDNAKNTVYLQMNSLKPEDTAVYYCAKGRKPGYYYWGQGTQVTVSS | high polyreactivity
QVQLVESGGGLVQAGGSLRLSCAASGSIFRRYAMGWYRQAPGKERELVAAIDSSGGTSYADSVKGRFTISRDNAKNTVYLQMNILKPEDTAVYYCATSFSWKGRKYGYWGQGTQVTVSS | high polyreactivity
QVQLVESGGGLVPAGGSLRLSCAASGSIFYHNAMGWYRQAPGKERELVAAISYRTGRTYYADSVKGRFTISRDNAKNTVYLQMNSLKPEDTAVYYCAAPYSWGQATQVTVSS | high polyreactivity
QVQLVESGGVFVQAGGSLRLSCAASGSIFPYVNAMGWYRQAPGKEREFVASIPGGGGTKYADSVKGRFTISRDNAKNTVYLQMNSLKAEDTAVYYCNATSGNPASTAWMNYWGQGTQVSVSS | low polyreactivity
QVQLVESGGGLVQAGGSLRLSCAASGRTFYPYARGWYREAPGKERELVAAISSNGVLTYYADSVKGRFTISRDNAKKSVYLQMNSLKPEDTAVYYCAARKPYVYHLDSWGQGTQVTVSS | high polyreactivity
QDQHVESAGGLVQAGGSLRLSCAATGFTFYYNPMRWYRQAPGKERELFASITRSGGPTYYADSVKGRFTISRDIAKHTVYLQMNSLKPEDTAVYYCARRYPGGYYWGHGTQVTVSS | high polyreactivity
QVQLVDSRGGLVQAGGSLRLICAASGSTFGRYARGWYRPEPGTERELVAAISWRGGSTFYADSVKGRFTISRDNAKNTVYLLMISLKPEDTAVYYCAAVSYGRPRMGYWGQGTQVTVSS | high polyreactivity
QVQLVESGGGLVQAGGSLRLSCAASGRTFLYYAKGWYRQAPGKERELGAAISSGGSTNYADSVKGRFTISRDNAKNTVYLQMNSLKPEDTAVYYCNADYTSRDTSDVIYEYDYWGQGTQVTVSS | low polyreactivity
HVQLVESGGGLVQAGGSLRLSCAASGIIFRYKALGWYREAPGKERELVAAISVSGGSTYYADSVKGRFTISRDNAKNTVDLQMNSLKPEDTAVDYCAALLYRYGVHQAEHDYWGQGTQVTVSS | high polyreactivity
QVQLVESGGGLVQAGGSLRLSCAASGFTFSNYAMGWYRQAPGKERELVAAISRSGGSTYYADSVKGRFTISRDNAKNTVYLQMNSLKPEDTAVYYCNADRYRVWYRRYDYWGQGTQVTVSS | high polyreactivity
QVQLVESGAGLVQAGGSLRLSCAASGSTFYFNGMGWYRQAPGKERELVAAISSTGNTYYADSVKGRFTISRDNAKNTVYLQMNSLKPEDTAVNDCLAGSSEAGYYWGHGTQVTVSS | high polyreactivity
QVQLVESGGGLVQAGGSLRLSCAASGITFYGYAMGWSRPAPGKERELVAVITSSGSSTYYADSVKGRFTISRDKAKNTVYVQMNSLKPEDTAVYDCNARPGRRSLRSRTYDYWGQGTQVTVSS | high polyreactivity
QVQLVESGGGLVQAGGSLRLSCAPSGFTFGDYAMGWYRQSPGTESELDAAISWSGGSTYYADSVKGRFTISRDNAKTTVYLQMNSLKPEDTAVYYCAAVDSATIEDDYWGQGTQVTVSS | high polyreactivity
QVQLVESGGGLVQAGGSLRLSCAASGSIFWTKAMGWYRQAPGKERELVARITYSGGSTYYADSVKGRFTISRDNAKNTVYLQMNSLKPEDTAVYYCNARTHGWPYSRYYYWGQGTQVTVSS | high polyreactivity
QVQLVESGGGLVQAGGRLRLSCAASGRTFGRYAMGWYRQAPGKERELVAAITGGVITTYADSVKGRFTISRDNAKNTVYLQMNSLKPEDTAVYYCAARYNVFPSPHYYYWGQGTQVTVSS | low polyreactivity
QVQLVESGGGLVQAGGSLRLSCAASGRNFNQYGMGRYIPAPGKERELVAAIRSGDSTNYADSVKGRFTISRDNAKNTVYLQMNSLKPEDTAVYYCARDRPGDYAGYDYWGQGTQVNVSS | low polyreactivity

From the nanobody polyreactivity screen of Harvey et al. (2022)
